Key:
HeLa Kyoto [1] = test: solubility change mitosis vs G1/S (difference of NP-40 vs SDS log2 ratios) (log2 ratio difference); higher = more soluble in mitosis
HeLa Kyoto [2] = test: solubility in G1/S (NP-40 vs SDS abundance) (log2 ratio); higher = more soluble; conditions: cell cycle stage: G1/S
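For solubility change mitosis vs G1/S (difference of NP-40 vs SDS log2 ratios) in this document: synchronized HeLa Kyoto cells (double thymidine block for G1/S, nocodazole release for mitosis), protein amounts in NP-40 versus SDS lysates quantified by mass spectrometry, three biological replicates.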
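For solubility in G1/S (NP-40 vs SDS abundance) in this document: HeLa Kyoto cells arrested at G1/S by double thymidine block, proteins quantified by TMT10plex mass spectrometry in mild NP-40 versus SDS extracts, three biological replicates.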

## MDWKEVLRRRLATPNTCPNKKKSEQELKDEEMDLFTKYYSEWKGGRKNTNEFYKTIPRFYYRLPAEDEVLLQKLREESRAVFLQRKSRELLDNEELQNLWFLLDKHQTPPMIGEEAMINYENFLKVGEKAGAKCKQFFTAKVFAKLLHTDSYGRISIMQFFNYVMRKVWLHQTRIGLSLYDVAGQGYLRESDLENYILELIPTLPQLDGLEKSFYSFYVCTAVRKFFFFLDPLRTGKIKIQDILACSFLDDLLELRDEELSKESQETNWFSAPSALRVYGQYLNLDKDHNGMLSKEELSRYGTATMTNVFLDRVFQECLTYDGEMDYKTYLDFVLALENRKEPAALQYIFKLLDIENKGYLNVFSLNYFFRAIQELMKIHGQDPVSFQDVKDEIFDMVKPKDPLKISLQDLINSNQGDTVTTILIDLNGFWTYENREALVANDSENSADLDDT [C14ORF10]
HeLa Kyoto [1]
  solubility change mitosis (log2): -0.0757
HeLa Kyoto [2]
  solubility in G1/S (log2): -0.0201

## MAGPLRAPLLLLAILAVALAVSPAAGSSPGKPPRLVGGPMDASVEEEGVRRALDFAVGEYNKASNDMYHSRALQVVRARKQIVAGVNYFLDVELGRTTCTKTQPNLDNCPFHDQPHLKRKAFCSFQIYAVPWQGTMTLSKSTCQDA [CST3]
HeLa Kyoto [1]
  solubility change mitosis (log2): 0.378
HeLa Kyoto [2]
  solubility in G1/S (log2): -0.0401

## MGASSSSALARLGLPARPWPRWLGVAALGLAAVALGTVAWRRAWPRRRRRLQQVGTVAKLWIYPVKSCKGVPVSEAECTAMGLRSGNLRDRFWLVIKEDGHMVTARQEPRLVLISIIYENNCLIFRAPDMDQLVLPSKQPSSNKLHNCRIFGLDIKGRDCGNEAAKWFTNFLKTEAYRLVQFETNMKGRTSRKLLPTLDQNFQVAYPDYCPLLIMTDASLVDLNTRMEKKMKMENFRPNIVVTGCDAFEEDTWDELLIGSVEVKKVMACPRCILTTVDPDTGVIDRKQPLDTLKSYRLCDPSERELYKLSPLFGIYYSVEKIGSLRVGDPVYRMV [MARC2]
HeLa Kyoto [1]
  solubility change mitosis (log2): 0.103
HeLa Kyoto [2]
  solubility in G1/S (log2): -0.315

## MAPRKGSSRVAKTNSLRRRKLASFLKDFDREVEIRIKQIESDRQNLLKEVDNLYNIEILRLPKALREMNWLDYFALGGNKQALEEAATADLDITEINKLTAEAIQTPLKSAKTRKVIQVDEMIVEEEEEEENERKNLQTARVKRCPPSKKRTQSIQGKGKGKRSSRANTVTPAVGRLEVSMVKPTPGLTPRFDSRVFKTPGLRTPAAGERIYNISGNGSPLADSKEIFLTVPVGGGESLRLLASDLQRHSIAQLDPEALGNIKKLSNRLAQICSSIRTHK [CDCA8]
HeLa Kyoto [1]
  solubility change mitosis (log2): 0.0931
HeLa Kyoto [2]
  solubility in G1/S (log2): -1.64

## CDK5RAP2
HeLa Kyoto [1]
  solubility change mitosis (log2): -0.239
HeLa Kyoto [2]
  solubility in G1/S (log2): -0.157

## KDM5A
HeLa Kyoto [1]
  solubility change mitosis (log2): 0.00727
HeLa Kyoto [2]
  solubility in G1/S (log2): -0.206

## MAQGSHQIDFQVLHDLRQKFPEVPEVVVSRCMLQNNNNLDACCAVLSQESTRYLYGEGDLNFSDDSGISGLRNHMTSLNLDLQSQNIYHHGREGSRMNGSRTLTHSISDGQLQGGQSNSELFQQEPQTAPAQVPQGFNVFGMSSSSGASNSAPHLGFHLGSKGTSSLSQQTPRFNPIMVTLAPNIQTGRNTPTSLHIHGVPPPVLNSPQGNSIYIRPYITTPGGTTRQTQQHSGWVSQFNPMNPQQVYQPSQPGPWTTCPASNPLSHTSSQQPNQQGHQTSHVYMPISSPTTSQPPTIHSSGSSQSSAHSQYNIQNISTGPRKNQIEIKLEPPQRNNSSKLRSSGPRTSSTSSSVNSQTLNRNQPTVYIAASPPNTDELMSRSQPKVYISANAATGDEQVMRNQPTLFISTNSGASAASRNMSGQVSMGPAFIHHHPPKSRAIGNNSATSPRVVVTQPNTKYTFKITVSPNKPPAVSPGVVSPTFELTNLLNHPDHYVETENIQHLTDPTLAHVDRISETRKLSMGSDDAAYTQALLVHQKARMERLQRELEIQKKKLDKLKSEVNEMENNLTRRRLKRSNSISQIPSLEEMQQLRSCNRQLQIDIDCLTKEIDLFQARGPHFNPSAIHNFYDNIGFVGPVPPKPKDQRSIIKTPKTQDTEDDEGAQWNCTACTFLNHPALIRCEQCEMPRHF [TAB2]
HeLa Kyoto [1]
  solubility change mitosis (log2): -0.0447
HeLa Kyoto [2]
  solubility in G1/S (log2): 0.348

## MAQAHRTPQPRAAPSQPRVFKLVLLGSGSVGKSSLALRYVKNDFKSILPTVGCAFFTKVVDVGATSLKLEIWDTAGQEKYHSVCHLYFRGANAALLVYDITRKDSFLKAQQWLKDLEEELHPGEVLVMLVGNKTDLSQEREVTFQEGKEFADSQKLLFMETSAKLNHQVSEVFNTVAQELLQRSDEEGQALRGDAAVALNKGPARQAKCCAH [RAB17]
HeLa Kyoto [1]
  solubility change mitosis (log2): -0.134
HeLa Kyoto [2]
  solubility in G1/S (log2): 0.138

From the supplement of paper PMC5998384
